Data on one substance can be found in paper PMC3407216.

Test [1] addresses Matrix metalloproteinase-2 (human (endogenous in tumor cells)) (UniProt P08253).
Test [2] has as its target MMP-2–cleaved fibronectin (human).

αvβ3 integrin, sequence (P05106 whole entry, looked up): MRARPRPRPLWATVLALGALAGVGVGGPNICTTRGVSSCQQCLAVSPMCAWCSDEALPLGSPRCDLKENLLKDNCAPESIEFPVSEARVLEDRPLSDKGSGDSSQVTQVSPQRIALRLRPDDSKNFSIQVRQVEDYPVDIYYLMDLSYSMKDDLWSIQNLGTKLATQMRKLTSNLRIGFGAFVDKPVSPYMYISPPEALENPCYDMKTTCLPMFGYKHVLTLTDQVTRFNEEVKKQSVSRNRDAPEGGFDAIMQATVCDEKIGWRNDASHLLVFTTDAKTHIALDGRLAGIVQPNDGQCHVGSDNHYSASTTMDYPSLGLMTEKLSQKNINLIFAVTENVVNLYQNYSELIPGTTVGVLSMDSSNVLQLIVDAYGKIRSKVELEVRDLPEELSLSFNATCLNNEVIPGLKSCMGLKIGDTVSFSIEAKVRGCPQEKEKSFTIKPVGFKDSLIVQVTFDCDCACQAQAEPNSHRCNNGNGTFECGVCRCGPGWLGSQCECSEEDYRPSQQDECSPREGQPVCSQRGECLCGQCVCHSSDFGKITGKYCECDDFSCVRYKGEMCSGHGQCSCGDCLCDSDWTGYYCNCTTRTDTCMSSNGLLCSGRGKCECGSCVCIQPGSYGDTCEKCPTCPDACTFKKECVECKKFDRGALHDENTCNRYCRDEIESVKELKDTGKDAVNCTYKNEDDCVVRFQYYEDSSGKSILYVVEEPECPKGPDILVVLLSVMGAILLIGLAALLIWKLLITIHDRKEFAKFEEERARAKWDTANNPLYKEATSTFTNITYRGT
UniProt P08253, sequence (P08253 30-660): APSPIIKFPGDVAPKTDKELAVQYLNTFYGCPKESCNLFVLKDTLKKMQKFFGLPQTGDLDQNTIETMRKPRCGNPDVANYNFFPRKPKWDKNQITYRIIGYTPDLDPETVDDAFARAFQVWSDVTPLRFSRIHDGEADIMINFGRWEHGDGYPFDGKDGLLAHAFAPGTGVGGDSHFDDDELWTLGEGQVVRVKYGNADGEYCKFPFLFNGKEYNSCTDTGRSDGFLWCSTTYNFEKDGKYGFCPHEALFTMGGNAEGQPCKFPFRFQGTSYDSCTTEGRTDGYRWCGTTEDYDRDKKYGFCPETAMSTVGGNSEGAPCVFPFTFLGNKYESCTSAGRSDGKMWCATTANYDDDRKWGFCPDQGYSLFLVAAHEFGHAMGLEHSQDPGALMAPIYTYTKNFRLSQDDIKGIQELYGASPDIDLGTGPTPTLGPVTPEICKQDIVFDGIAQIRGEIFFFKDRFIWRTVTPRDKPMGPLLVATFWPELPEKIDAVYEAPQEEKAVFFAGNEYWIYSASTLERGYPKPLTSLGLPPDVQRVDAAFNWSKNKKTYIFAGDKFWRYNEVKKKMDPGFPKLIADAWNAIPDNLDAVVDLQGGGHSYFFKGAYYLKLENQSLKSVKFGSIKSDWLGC

In the case of “αvβ3 integrin (from UniProt P05106 27-788) (receptor)”, the static adhesion of fluorescently stained A375 cells to wells coated with APMA-activated recombinant human MMP-2, compared with cells blocked with RGD peptides in test [1] is above 59%. In test [2], this substance registered an adhesion of M21 melanoma cells (30 min) to plates coated with MMP-2–cleaved fibronectin compared with full-length fibronectin; no obvious changes with M21-L cells that lack αvβ3 integrin above 34%.
